Measurements reported in PMC6640040 (Nature, 2016).
Residue numbers refer to the chain shown, from its start.

T1: MecA (B. subtilis, UniProt P37958 1-218)
T1 sequence (looked up): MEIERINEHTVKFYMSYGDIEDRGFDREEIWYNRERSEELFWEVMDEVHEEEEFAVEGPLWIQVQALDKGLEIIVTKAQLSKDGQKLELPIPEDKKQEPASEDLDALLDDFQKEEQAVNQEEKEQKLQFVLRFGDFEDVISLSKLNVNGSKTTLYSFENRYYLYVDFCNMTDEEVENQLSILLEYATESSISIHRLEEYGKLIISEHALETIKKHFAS

B1: endogenous ClpP (enzyme)
chain: not shown
B2: ClpC^NTD(1–150) (domain or fragment, B. subtilis, UniProt P37571 1-150, looked up)
chain: MMFGRFTERAQKVLALAQEEALRLGHNNIGTEHILLGLVREGEGIAAKALQALGLGSEKIQKEVESLIGRGQEMSQTIHYTPRAKKVIELSMDEARKLGHSYVGTEHILLGLIREGEGVAARVLNNLGVSLNKARQQVLQLLGSNETGSS
B3: ClpC NTD^EA mutant (domain or fragment, B. subtilis, UniProt P37571 1-150, looked up)
chain: B2 chain with E32A, E106A

Experiments:
Assay in all cases: pull-down
[1] = target: wild-type ClpP(6His) (B. subtilis, UniProt P80244 1-197)
[2] = target: ClpP(6His)^TRAP (B. subtilis, UniProt P80244 1-197, Ser98Ala)
[3] = target: T1, MecA

Binder	binding result [1]	binding result [2]	binding result [3]
B1	binds	binds	–
B2	–	–	binds
B3	–	–	binds
